Data from patent publication US20110182904A1 (published 2011).
Where no end group is shown, it is not given here.

T1: human bone morphogenic protein 4 (BMP4) (human, UniProt P12644 293-408)
T1 construct: Bought recombinant human BMP4 (R&D Systems); also called recombinant human BMP4
T1 sequence: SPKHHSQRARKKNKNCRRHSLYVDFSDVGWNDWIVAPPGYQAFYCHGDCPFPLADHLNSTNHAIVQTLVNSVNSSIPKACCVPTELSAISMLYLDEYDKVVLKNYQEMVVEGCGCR

T2: BMP2 epitope peptide QAKHKQRKRLKSSCKRH (SEQ ID NO:93) (human, also: biotin conjugated, site not given here)
T2 construct: Biotinylated peptide captured on a streptavidin chip
T2 peptide: QAKHKQRKRLKSSCKRH

T3: BMP2 epitope peptide ISMLYLDENEKVVLK (SEQ ID NO:92) (human, also: biotin conjugated, site not given here)
T3 construct: Biotinylated peptide captured on a streptavidin chip
T3 peptide: ISMLYLDENEKVVLK


What was measured:
[1] = molecular target: T4, human bone morphogenic protein 2 (BMP2) (human, UniProt P12643 283-396, Disulfide-linked homodimer of this chain (non-reduced band of about 36 kDa, monomers of 17-18 kDa); one copy is given.); assay: SPR (Biacore); mAb captured via anti-human Fc, BMP flowed at 10 nM
T4 construct: Bought recombinant human BMP2 (R&D Systems or Medtronic); also called recombinant human BMP2
T4 sequence (P12643 283-396 limits assumed): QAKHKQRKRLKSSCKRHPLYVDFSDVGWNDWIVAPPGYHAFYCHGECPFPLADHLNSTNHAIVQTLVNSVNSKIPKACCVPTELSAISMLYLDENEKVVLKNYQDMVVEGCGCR
Experimental: (§1) The antigen-antibody association kinetics was followed for 2 minutes and the dissociation kinetics was followed for 8 minutes. The association and dissociation curves were fit to a 1:1 Langmuir binding model using BIAevaluation software (Biacore, AB).

[2] = molecular target: T1, human bone morphogenic protein 4 (BMP4); assay: as above
Experimental: as §1

[3] = molecular target: T4, human bone morphogenic protein 2 (BMP2); assay: cell-based or functional assay
[4] = molecular target: T1, human bone morphogenic protein 4 (BMP4); assay: cell-based or functional assay
[5] = molecular target: T2, BMP2 epitope peptide QAKHKQRKRLKSSCKRH …; assay: SPR (Biacore); biotinylated peptide on streptavidin chip, antibody at 40 ug/ml
[6] = molecular target: T3, BMP2 epitope peptide ISMLYLDENEKVVLK …; assay: as above
[7] = molecular target: T1, human bone morphogenic protein 4 (BMP4); assay: Biacore competition: mAb (two-fold series from 400 nM) pre-incubated with BMP4 (3-10 nM), mixture injected over immobilised type II BMP receptor; response = BMP4 binding to the receptor
Experimental: Both type-I and type-II BMP receptors were covalently linked to a CM5 chip (carboxy methyl dextran coated chip) via primary amines, using the standard amine coupling chemistry and kit provided by Biacore. Mixtures of antibody-antigen complex were flowed across the immobilized receptors. […] Antibody-antigen mixtures were injected at a flow rate of 5 μl/min for 3 minutes.

| Binder | Kd [1] | koff [1] | kon [1] | Kd [2] | koff [2] | kon [2] | IC50 (read off the curve) [3] | IC50 (read off the curve) [4] | binding result [5] | binding result [6] | IC50 (read off the curve) [7] |
| --- | --- | --- | --- | --- | --- | --- | --- | --- | --- | --- | --- |
| 1F6 human monoclonal antibody (antibody, V domains shown, Human IgG from a HuMAb/KM mouse hybridoma) VH: QVQLQESGPGLVKPSETLSLTCTVSGDSISSYYWSWIRQPPGKGLEWIGYIYYSGSTRYNPPLKSRVTISVDTSKNQFSLKLSSVTAADTAVYYCARICSSTSCWGWFDPWGQGTLVTVSS VL: not shown | 0.02 nM | 8.49e-05 s⁻¹ | 4.65e+06 M⁻¹ s⁻¹ | 0.0003 nM | 1.27e-06 s⁻¹ | 4.97e+06 M⁻¹ s⁻¹ | – | – | – | – | – |
| 8B3 human monoclonal antibody (antibody, V domains shown, Human IgG from a HuMAb/KM mouse hybridoma) VH: QVQLVQSGAEVKKPGSSVKVSCKASGGTFSSYAISWVRQAPGQGLEWMGRIIPILGIAQYAQKFQGRVTLTADKSTSTAYMELSSLRSEDTAVYYCARGKDIWGQGTMVTVSS VL: not shown | 0.19 nM | 0.000582 s⁻¹ | 3.02e+06 M⁻¹ s⁻¹ | 0.18 nM | 0.000827 s⁻¹ | 4.69e+06 M⁻¹ s⁻¹ | – | – | – | binds | – |
| 33F7 human monoclonal antibody (antibody, V domains shown, Human IgG from a HuMAb/KM mouse hybridoma) VH: QVQLVQSGAEVKKPGSSVKVSCKASGGTFSSYAINWVRQAPGQGLEWMGRLIPILGIANYAQKFQGRVTITADKSTSTAYMELSSLRSEDTAVYYCARGKDIWGQGTMVTVSS VL: EIVLTQSPGTLSLSPGERVTLSCRASQSVSSNYLAWYQQKPGQAPRLLIKGASSRATGIPDRFSGSGSGTDFTLTISRLEPEDFAVYYCQQYGSSPCTFGQGTKLEIK | 0.12 nM | 0.000654 s⁻¹ | 5.71e+06 M⁻¹ s⁻¹ | 0.38 nM | 0.0014 s⁻¹ | 3.65e+06 M⁻¹ s⁻¹ | – | – | – | – | ~100 nM |
| 7D6 human monoclonal antibody (antibody, V domains shown, Human IgG from a HuMAb/KM mouse hybridoma) VH: QVQLVQSGAEVKKPGSSVKVSCKASGGTFSSYAISWVRQAPGQGLEWMGRIIPILGIVNYAQKFQGRVTITADKSTSTAYMELSSLRSEDTAVYYCARGKDIWGQGTMVTVSS VL: EIVLTQSPGTLSLSPGERATLSCRASQIVISTYLAWYQQKPGQAPRLLIYGASSRATGIPDRFSGSGSGTDFTLTISRLEPEDFAVYYCQQYGSSPCTFGQGTKLEIK | 0.28 nM | 0.00114 s⁻¹ | 4e+06 M⁻¹ s⁻¹ | 0.42 nM | 0.0012 s⁻¹ | 2.84e+06 M⁻¹ s⁻¹ | – | – | – | binds | – |
| 16B7 human monoclonal antibody (antibody, V domains shown, Human IgG from a HuMAb/KM mouse hybridoma) VH: QVQLVESGGGVVQPGRSLRLSCAASGFTFSNYGIHWVRQAPGKGLEWVAVIWYDGSHKYYADSMKGRFTISRDNSKNTLDLQMNSLRAEDTAVYYCARGSSSWYFDLWGRGTLVTVSS VL: DIQMTQSPSSLSASVGDRVTITCRASQGISSWLAWYQQKPEKAPKSLIYAASSLQSGVPSRFSGSGSGTDFTLTISSLQPEDFATYYCQQYNSYPLTFGGGTKVEIK | 0.08 nM | 0.000282 s⁻¹ | 3.7e+06 M⁻¹ s⁻¹ | 0.02 nM | 6.12e-05 s⁻¹ | 2.86e+06 M⁻¹ s⁻¹ | – | – | binds | – | – |
| 10F6 human monoclonal antibody (antibody, V domains shown, Human IgG from a HuMAb/KM mouse hybridoma) VH: QVQLVESGGGVVQPGRSLRLSCAASGFTFRSYGIHWVRQAPGKGLEWVAVIWYDGSHKYYADSVKGRFTISRDNSKNTLDLQMNSLRAEDTAVYYCVRGSSNWYFDYWGQGTLVTVSS VL: DIQMTQSPSSLSASVGDRVTITCRASQGISSWLAWYQQKPEKAPKSLIYAASSLQSGVPSRFSGSGSGTDFTLTISSLQPEDFATYYCQQYNSYPLTFGGGTKVEIK | 0.19 nM | 0.000385 s⁻¹ | 2.04e+06 M⁻¹ s⁻¹ | 0.75 nM | 0.00197 s⁻¹ | 2.61e+06 M⁻¹ s⁻¹ | – | – | – | – | – |

The next lines start with the values.

| Kd [1] | koff [1] | kon [1] | Kd [2] | koff [2] | kon [2] | IC50 (read off the curve) [3] | IC50 (read off the curve) [4] | binding result [5] | binding result [6] | IC50 (read off the curve) [7] | Binder |
| --- | --- | --- | --- | --- | --- | --- | --- | --- | --- | --- | --- |
| 0.01 nM | 3.09e-05 s⁻¹ | 2.83e+06 M⁻¹ s⁻¹ | 0.0007 nM | 3.04e-08 s⁻¹ | 45300 M⁻¹ s⁻¹ | ~3 µg/mL | ~3 µg/mL | binds | – | – | 11F2 human monoclonal antibody (antibody, V domains shown, Human IgG from a HuMAb/KM mouse hybridoma) VH: QVQLQESGPGLVKPSETLSLTCTVSGDSIRSYYWSWIRQPPGKGLEWIGYIYYRGSTHYNPSLKSRVTISVDTSKNQFSLKMSSVTAADTAVYYCARICSSISCWGWFDPWGQGTLVTVSS VL: not shown |
| 0.1 nM | 0.000198 s⁻¹ | 1.42e+06 M⁻¹ s⁻¹ | 0.3 nM | 0.000497 s⁻¹ | 2e+06 M⁻¹ s⁻¹ | – | – | – | – | – | 6H4 human monoclonal antibody (antibody, V domains shown, Human IgG from a HuMAb/KM mouse hybridoma) VH: QVHLQQWGAGLLKPSETLSLTCAVYGGSFSGYYWSWIRQPPGKGLEWIGEINHSGSTNYNPSLKSRVTISVDTSKNQFSLKLSSVTAADTAVYYCAREYYYGSESEYFQHWGQGTLVTVSS VL: EIVLTQSPATLSLSPGERATLSCRASQSVSSYLAWYQQKPGQAPRLLIYDASNRATGIPARFSGSGSGTDFTLTISSLEPEDFAVYYCQQRSNWPHTFGQGTKLEIK |
| 0.03 nM | 0.00027 s⁻¹ | 7.96e+06 M⁻¹ s⁻¹ | 0.18 nM | 0.00056 s⁻¹ | 3.14e+06 M⁻¹ s⁻¹ | – | – | – | – | – | 15F3 human monoclonal antibody (antibody, V domains shown, Human IgG from a HuMAb/KM mouse hybridoma) VH: QVQLVQSGAEVKKPGSSVKVSCKASGGTFSSYAISWVRQAPGQGLEWMGRIIPILGIAQYAQKFQGRVTLTADKSTNTAYMELSSLRSEDTAVYYCARGKDIWGQGTMVTVSS VL: not shown |
| 0.02 nM | 8.26e-05 s⁻¹ | 3.39e+06 M⁻¹ s⁻¹ | 0.28 nM | 0.000482 s⁻¹ | 1.75e+06 M⁻¹ s⁻¹ | – | – | binds | – | ~20 nM | 12E3 human monoclonal antibody (antibody, V domains shown, Human IgG from a HuMAb/KM mouse hybridoma) VH: QVQLVESGGGVVQPGRSLRLSCAASGFTFSSYGMHWVRQAPGKGLEWVAVIWDDGRKKYYADSVKGRFTISRDNSKNTLYLQMNSLRAEDTAVYYCAREPAGVWGMDVWGQGTTVTVSS VL: DIQMTQSPSSLSASVGDRVTITCRASQGISSWLAWYQQKPEKAPKSLIYAASSLQSGVPSRFSGSGSGTDFTLTISSLQPEDFATYYCQQYNSYPLTFGGGTKVEIK |
